According to patent US20020102534A1 (INSTITUT PASTEUR AND INSTITUT NATIONAL DE LA SANTE ET DE LA …, published 2002):

B1: HCV core protein, full-length (capsid) (other)
chain: MSTNPKPQRKTKRNTNRRPQDVKFPGGGQIVGGVYLLPRRGPRLGVRATRKTSERSQPRGRRQPIPKARRPEGRTWAQPGYPWPLYGNEGCGWAGWLLSPRGSRPSWGPTDPRRRSRNLGKVIDTLTCGFADLMGYIPLVGAPLGGAARALAHGVRVLEDGVNYATGNLPGCSFSIFLLALLSCLTVPASA
notes: mature; also called capsid protein; p22
B2: truncated HCV capsid protein C-delta-115 (other)
chain: MSTNPKPQRKTKRNTNRRPQDVKFPGGGQIVGGVYLLPRRGPRLGVRATRKTSERSQPRGRRQPIPKARRPEGRTWAQPGYPWPLYGNEGCGWAGWLLSPRGSRPSWGPTDPRRR
notes: also called CD115; CoreD115

Biological target: the molecule itself
Assay: yeast two-hybrid bait-prey matrix (LacZ and HIS3 reporters)

Row | Protein | binding result
1 | B1 | no binding
2 | B2 | binds
